The text below walks through data of PMC4218953 (2014).

For assay [1], the target named is vacant 70S ribosomes from E. coli MRE600 (E. coli). Put plainly: FRET; 4°C; 70S labelled at L23 with MDCC.
The target is the same in assay [2]. Put plainly: FRET; 25°C; 70S labelled at L23 with MDCC.
The target is the same in assay [3]. Put plainly: 25°C.
Assay [4] deals with Lep75-RNC (ribosome-nascent-chain complex carrying 75 N-terminal amino acids of leader peptidase) (E. coli | , UniProt P00803 1-75, f[3H]Met at the N-terminus; nascent chain bound to tRNA). Kind of assay: 25°C.

B1: single-labelled SecYEG(Bpy) (complex)
chain 1: MAKQPGLDFQSAKGGLGELKRRLLFVIGALIVFRIGSFIPIPGIDAAVLAKLLEQQRGTIIEMFNMFSGGALSRASIFALGIMPYICASIIIQLLTVVHPTLAEIKKEGESGRRKISQYTRYGTLVLAIFQSIGIATGLPNMPGMQGLVINPGFAFYFTAVVSLVTGTMFLMWLGEQITERGIGNGISIIIFAGIVAGLPPAIAHTIEQARQGDLHFLVLLLVAVLVFAVTFFVVFVERGQRRIVVNYAKRQQGRRVYAAQSTHLPLKVNMAGVIPAIFASSIILFPATIASWFGGGTGWNWLTTISLYLQPGQPLYVLLYASAIIFFCFFYTALVFNPRETADNLKKSGAFVPGIRPGEQTAKYIDKVMTRLTLVGALYITFICLIPEFMRDAMKVPFYFGGTSLLIVVVVIMDFMAQVQTLMMSSQYESALKKANLKGYGR
chain 2: MSANTEAQGSGRGLEAMKWVVVVALLLVAIVGNYLYRDIMLPLRALAVVILIAAAGGVALLTTKGKATVAFAREARTEVRKVIWPTRQETLHTTLIVAAVTAVMSLILWGLDGILVRLVSFITGLRF
chain 3: MYEALLVVFLIVAIGLVGLIMLQQGKGADMGASFGAGASATLFGSSGSGNFMTRMTALLATLFFIISLVLGNINSNKTNKGSEWENLSAPAKTEQTQPAAPAKPTSDIPN
modifications: BODIPY FL (maleimide derivative) on Cys87
As for B1, the Kd in assay [1] was found to be 10 nM; in assay [2] it was 20 nM.

B2: double-labelled SecYEG(Bpy/Trp) (complex)
chain 1: MAKQPGLDFQSAKGGLGELKRRLLFVIGALIVFRIGSFIPIPGIDAAVLAKLLEQQRGTIIEMFNMFSGGALSRASIFALGIMPYICASIIIQLLTVVHPTLAEIKKEGESGRRKISQYTRYGTLVLAIFQSIGIATGLPNMPGMQGLVINPGFAFYFTAVVSLVTGTMFLMWLGEQITERGIGNGISIIIFAGIVAGLPPAIAHTIEQARQGDLHFLVLLLVAVLVFAVTFFVVFVERGQRRIVVNYAKRQQGRRVYAAQSTHLPLKVNMAGVIPAIFASSIILWPATIASWFGGGTGWNWLTTISLYLQPGQPLYVLLYASAIIFFCFFYTALVFNPRETADNLKKSGAFVPGIRPGEQTAKYIDKVMTRLTLVGALYITFICLIPEFMRDAMKVPFYFGGTSLLIVVVVIMDFMAQVQTLMMSSQYESALKKANLKGYGR
chain 2: MSANTEAQGSGRGLEAMKWVVVVALLLVAIVGNYLYRDIMLPLRALAVVILIAAAGGVALLTTKGKATVAFAREARTEVRKVIWPTRQETLHTTLIVAAVTAVMSLILWGLDGILVRLVSFITGLRF
chain 3: MYEALLVVFLIVAIGLVGLIMLQQGKGADMGASFGAGASATLFGSSGSGNFMTRMTALLATLFFIISLVLGNINSNKTNKGSEWENLSAPAKTEQTQPAAPAKPTSDIPN
modifications: BODIPY FL (maleimide derivative) on Cys87
Take B2: the results for the Kd in assay [3] and in assay [4] were 20 nM and 10 nM, respectively.

The Kd is the equilibrium constant for the complex coming apart. Low values mean higher affinity, high ones lower affinity.
